The values that follow come from PMC6030175, “A senataxin-associated exonuclease SAN1 is required for resistance to DNA interstrand cross-links”.

In the series the target is T1, SAN1 D90A (catalytically inactive) (mouse or human ( for the …, UniProt Q6RI63 1-786, D90A)).
T1 sequence: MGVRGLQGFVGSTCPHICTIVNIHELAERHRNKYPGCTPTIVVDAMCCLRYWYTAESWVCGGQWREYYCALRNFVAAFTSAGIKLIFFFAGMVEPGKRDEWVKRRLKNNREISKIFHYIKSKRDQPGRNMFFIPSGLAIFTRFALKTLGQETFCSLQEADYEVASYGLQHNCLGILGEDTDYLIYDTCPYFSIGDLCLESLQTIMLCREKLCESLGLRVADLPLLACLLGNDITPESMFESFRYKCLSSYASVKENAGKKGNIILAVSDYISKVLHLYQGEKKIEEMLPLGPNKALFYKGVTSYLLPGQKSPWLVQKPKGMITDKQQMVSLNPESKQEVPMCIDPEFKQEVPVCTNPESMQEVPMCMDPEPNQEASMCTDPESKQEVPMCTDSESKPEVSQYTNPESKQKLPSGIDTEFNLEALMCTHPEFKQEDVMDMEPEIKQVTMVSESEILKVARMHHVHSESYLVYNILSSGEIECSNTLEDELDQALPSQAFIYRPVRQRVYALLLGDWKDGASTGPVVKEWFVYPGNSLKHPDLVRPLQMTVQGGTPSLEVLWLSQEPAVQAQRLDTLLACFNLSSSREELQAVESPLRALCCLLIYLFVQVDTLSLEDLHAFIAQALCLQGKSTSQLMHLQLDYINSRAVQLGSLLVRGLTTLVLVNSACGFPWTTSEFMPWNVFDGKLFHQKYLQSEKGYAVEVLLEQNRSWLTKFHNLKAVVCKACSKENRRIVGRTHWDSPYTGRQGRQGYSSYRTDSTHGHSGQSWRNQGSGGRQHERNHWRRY
The experiment in a line: EMSA; 5 mM Mg2+; protein 0, 1, 5, 10, 20 nM; DNA 1 nM; EMSA: 20 mM HEPES pH 7.4, 0.1% NP-40, 0.1 M KCl, 5 mM MgCl2, 1% glycerol, 0.25 ug/uL BSA, 1 mM DTT, 30 min, room temperature; 5% native gel, 0.5x TBE. The settings on record: protein: recombinant; tags: Strep-tag II (murine, C-terminal) or Strep-FLAG (human); label: 5' 32P; single strand 50 nt. For orientation: Mobility shift assays separate free from complexed probe on a gel.

AACGTCATAGACGATTACATTGCTAGGACATCTTTGCCCACGTTGACCCA (ssDNA) [X4]: the binding result was “binds”.
